Assay results published in PMC2715106 (PLoS ONE, 2009).

Assays:
Settings in all cases: both partners purified
[1] = biological target: T1, terbium-labeled core RNA polymerase (E. coli, UniProt P0A7Z4 1-329; P0A8V2 1-1342; P0A8T7 1-1407; P0A800 1-91, CS124-DTPA-Phe-NCS-Tb-chelate on randomly labeled lysine residues of core RNAP, 1:1 ratio of Tb-chelate to molecule of core; which subunit is not told | CS124-DTPA-Phe-NCS-Tb-chelate on randomly …); assay: FRET or BRET; LRET saturation binding, homogeneous; fluorescein-sigma serially diluted, 10 nM Tb-core; TG (50 mM Tris-HCl pH 7.9, 5% glycerol) + 250 mM NaCl; 1 h at 22°C; [core]0 set at 5 nM in the fit
T1 construct: E. coli RNA polymerase α subunit; E. coli RNA polymerase β subunit; E. coli RNA polymerase β' subunit; E. coli RNA polymerase ω subunit; also called Tb-core; Tb-core RNAP; copies: 2 + 1 + 1 + 1
T1 sequence (P0A7Z4 whole entry, chain 1 of 4): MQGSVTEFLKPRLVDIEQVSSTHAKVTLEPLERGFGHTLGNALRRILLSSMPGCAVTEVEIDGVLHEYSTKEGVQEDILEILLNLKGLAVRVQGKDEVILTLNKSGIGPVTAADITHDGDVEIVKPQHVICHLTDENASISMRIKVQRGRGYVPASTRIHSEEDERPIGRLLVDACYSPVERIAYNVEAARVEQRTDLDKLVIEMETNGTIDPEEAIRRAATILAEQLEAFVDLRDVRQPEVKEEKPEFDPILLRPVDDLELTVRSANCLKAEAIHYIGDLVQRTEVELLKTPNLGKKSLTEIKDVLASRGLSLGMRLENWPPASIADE
T1 sequence (P0A8V2 whole entry, chain 2 of 4): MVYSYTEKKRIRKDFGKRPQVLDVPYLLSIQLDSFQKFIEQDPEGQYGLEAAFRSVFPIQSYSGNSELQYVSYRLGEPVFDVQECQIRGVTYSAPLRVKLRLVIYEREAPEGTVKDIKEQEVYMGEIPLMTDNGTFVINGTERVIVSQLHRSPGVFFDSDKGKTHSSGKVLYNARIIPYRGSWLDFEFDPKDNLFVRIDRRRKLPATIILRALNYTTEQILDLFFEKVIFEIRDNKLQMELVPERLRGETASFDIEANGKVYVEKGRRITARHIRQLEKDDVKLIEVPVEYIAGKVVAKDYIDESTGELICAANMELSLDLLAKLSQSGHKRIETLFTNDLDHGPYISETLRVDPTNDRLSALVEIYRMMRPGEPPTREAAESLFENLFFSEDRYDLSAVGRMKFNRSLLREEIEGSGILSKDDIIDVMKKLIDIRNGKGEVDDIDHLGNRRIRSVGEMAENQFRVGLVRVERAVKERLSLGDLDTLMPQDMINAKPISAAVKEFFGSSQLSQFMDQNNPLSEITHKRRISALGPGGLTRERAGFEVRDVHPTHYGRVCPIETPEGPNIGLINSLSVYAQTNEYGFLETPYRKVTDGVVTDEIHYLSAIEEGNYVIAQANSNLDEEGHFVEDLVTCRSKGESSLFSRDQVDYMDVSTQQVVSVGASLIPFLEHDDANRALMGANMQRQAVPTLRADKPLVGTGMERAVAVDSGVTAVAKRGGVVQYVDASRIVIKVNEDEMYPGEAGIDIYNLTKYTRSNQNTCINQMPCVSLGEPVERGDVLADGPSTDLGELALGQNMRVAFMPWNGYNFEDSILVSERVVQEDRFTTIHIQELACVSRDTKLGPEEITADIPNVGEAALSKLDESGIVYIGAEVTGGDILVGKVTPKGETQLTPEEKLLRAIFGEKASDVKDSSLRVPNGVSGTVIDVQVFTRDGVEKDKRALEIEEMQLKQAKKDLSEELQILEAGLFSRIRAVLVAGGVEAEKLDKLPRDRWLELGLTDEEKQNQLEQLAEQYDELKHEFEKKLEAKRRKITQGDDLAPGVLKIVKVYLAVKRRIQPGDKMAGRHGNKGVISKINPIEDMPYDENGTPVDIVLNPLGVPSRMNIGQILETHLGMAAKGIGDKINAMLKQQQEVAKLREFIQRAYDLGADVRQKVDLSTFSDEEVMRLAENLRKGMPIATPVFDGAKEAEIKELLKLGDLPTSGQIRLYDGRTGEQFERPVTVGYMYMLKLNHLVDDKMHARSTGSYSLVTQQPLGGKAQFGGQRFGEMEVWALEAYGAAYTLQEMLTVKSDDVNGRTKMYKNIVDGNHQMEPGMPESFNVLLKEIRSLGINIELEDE
T1 sequence (P0A8T7 whole entry, chain 3 of 4): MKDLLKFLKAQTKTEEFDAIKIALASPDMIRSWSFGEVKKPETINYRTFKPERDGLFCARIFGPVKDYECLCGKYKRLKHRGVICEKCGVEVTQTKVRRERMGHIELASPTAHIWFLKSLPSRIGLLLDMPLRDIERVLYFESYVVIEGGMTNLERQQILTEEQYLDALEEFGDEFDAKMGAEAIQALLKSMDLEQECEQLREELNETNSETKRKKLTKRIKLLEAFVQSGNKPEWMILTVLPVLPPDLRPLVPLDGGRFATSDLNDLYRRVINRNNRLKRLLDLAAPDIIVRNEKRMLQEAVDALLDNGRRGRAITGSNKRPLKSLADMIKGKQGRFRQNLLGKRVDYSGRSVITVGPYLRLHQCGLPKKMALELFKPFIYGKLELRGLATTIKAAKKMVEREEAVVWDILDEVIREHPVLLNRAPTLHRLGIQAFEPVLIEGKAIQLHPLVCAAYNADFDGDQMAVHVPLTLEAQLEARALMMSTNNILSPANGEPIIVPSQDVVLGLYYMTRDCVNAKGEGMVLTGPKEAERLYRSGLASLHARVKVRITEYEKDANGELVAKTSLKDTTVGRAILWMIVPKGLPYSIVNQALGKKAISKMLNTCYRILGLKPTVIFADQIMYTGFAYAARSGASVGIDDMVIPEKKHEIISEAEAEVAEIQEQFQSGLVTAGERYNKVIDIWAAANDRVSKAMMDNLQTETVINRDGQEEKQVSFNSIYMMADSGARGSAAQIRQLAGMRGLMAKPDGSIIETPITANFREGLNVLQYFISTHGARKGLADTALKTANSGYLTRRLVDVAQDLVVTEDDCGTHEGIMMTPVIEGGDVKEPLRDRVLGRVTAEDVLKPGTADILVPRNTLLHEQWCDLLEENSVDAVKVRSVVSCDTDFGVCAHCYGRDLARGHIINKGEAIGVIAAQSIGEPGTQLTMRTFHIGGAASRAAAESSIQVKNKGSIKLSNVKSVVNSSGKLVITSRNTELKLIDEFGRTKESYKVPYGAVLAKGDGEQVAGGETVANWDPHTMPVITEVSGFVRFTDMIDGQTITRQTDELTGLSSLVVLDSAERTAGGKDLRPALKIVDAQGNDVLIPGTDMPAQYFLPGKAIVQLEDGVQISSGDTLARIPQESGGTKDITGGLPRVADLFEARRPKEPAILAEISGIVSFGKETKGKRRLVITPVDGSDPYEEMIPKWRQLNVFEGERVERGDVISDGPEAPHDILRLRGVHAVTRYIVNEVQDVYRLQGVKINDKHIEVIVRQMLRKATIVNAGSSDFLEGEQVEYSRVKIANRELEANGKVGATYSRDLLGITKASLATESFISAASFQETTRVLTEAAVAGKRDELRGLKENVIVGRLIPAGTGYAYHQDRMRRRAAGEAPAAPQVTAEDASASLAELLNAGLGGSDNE
T1 sequence (P0A800 whole entry, chain 4 of 4): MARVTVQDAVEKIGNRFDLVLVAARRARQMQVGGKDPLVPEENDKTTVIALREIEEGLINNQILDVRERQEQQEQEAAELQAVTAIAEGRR

[2] = biological target: T1, terbium-labeled core RNA polymerase; assay: FRET or BRET; LRET saturation binding, homogeneous; fluorescein-sigma serially diluted, 10 nM Tb-core; TG (50 mM Tris-HCl pH 7.9, 5% glycerol) + 100 mM KGlu; 1 h at 22°C; [core]0 set at 5 nM in the fit
[3] = biological target: T1, terbium-labeled core RNA polymerase; assay: FRET or BRET; LRET saturation binding, homogeneous; fluorescein-sigma serially diluted, 10 nM Tb-core; TG (50 mM Tris-HCl pH 7.9, 5% glycerol) + 500 mM KGlu; 1 h at 22°C; [core]0 set at 5 nM in the fit
[4] = biological target: T1, terbium-labeled core RNA polymerase; assay: FRET or BRET; LRET saturation binding, homogeneous; fluorescein-sigma serially diluted, 10 nM Tb-core; TG (50 mM Tris-HCl pH 7.9, 5% glycerol) + 500 mM NaCl; 1 h at 22°C; [core]0 set at 5 nM in the fit
[5] = biological target: T1, terbium-labeled core RNA polymerase; assay: FRET or BRET; LRET saturation binding, homogeneous; fluorescein-sigma serially diluted, 10 nM Tb-core; TG (50 mM Tris-HCl pH 7.9, 5% glycerol) + 250 mM KGlu; 1 h at 22°C; [core]0 set at 5 nM in the fit
[6] = biological target: T1, terbium-labeled core RNA polymerase; assay: FRET or BRET; LRET saturation binding, homogeneous; fluorescein-sigma serially diluted, 10 nM Tb-core; TG (50 mM Tris-HCl pH 7.9, 5% glycerol) + 100 mM NaCl; 1 h at 22°C; [core]0 set at 5 nM in the fit

B1: fluorescein-σ32 (natural protein, E. coli, UniProt P0AGB3 1-284, looked up)
chain: MTDKMQSLALAPVGNLDSYIRAANAWPMLSADEERALAEKLHYHGDLEAAKTLILSHLRFVVHIARNYAGYGLPQADLIQEGNIGLMKAVRRFNPEVGVRLVSFAVHWIKAEIHEYVLRNWRIVKVATTKAQRKLFFNLRKTKQRLGWFNQDEVEMVARELGVTSKDVREMESRMAAQDMTFDLSSDDDSDSQPMAPVLYLQDKSSNFADGIEDDNWEEQAANRLTDAMQGLDERSQDIIRARWLDEDNKSTLQELADRYGVSAERVRQLEKNAMKKLRAAIEA
modifications: fluorescein on randomly labeled lysine residues, 2:1 ratio of fluorescein to molecule of protein
notes: E. coli heat shock sigma factor σ32 (RpoH); also called F-σ32; RpoH
For B1, the Kd [1] was 0.6 nM, the Kd [2] was 0.3 nM and the Kd [3] was 2 nM. For the same binder, the Kd [4] was 2.4 nM, the Kd [5] was 1.3 nM and the Kd [6] was 0.8 nM.
